In paper PMC7835520:

Experiments:
Experiment in all cases: SEC; cleared, microfiltered serum-containing supernatant of transfected Bosc23 cells; Superdex 200 10/300 GL in PBS at 4°C; fractions TCA precipitated and immunoblotted with α-Shh or α-StrepII antibodies; total eluted protein set to 100%, monomeric (< 80 kDa) versus multimeric (> 80 kDa)
[1] = target: Shh^HA, Shh with an HA tag inserted into the C-terminal peptide (Mus musculus)
[2] = target: Sonic hedgehog (Shh), untagged (Mus musculus)
[3] = target: Shh^Strep, Shh with a StrepII tag inserted into the C-terminal peptide (Mus musculus)
[4] = target: ^HAShh^HA, Shh with HA tags in both terminal peptides (Mus musculus)

“Shh^HA, Shh with an HA tag inserted into the C-terminal peptide (ligand)” showed a percent of eluted protein < 80 kDa (monomeric) [1] of 65%.

Sonic hedgehog (Shh), untagged (ligand) was tested, and the percent of eluted protein < 80 kDa (monomeric) [2] was 15%.

For “Shh^Strep, Shh with a StrepII tag inserted into the C-terminal peptide (ligand)”, the percent of eluted protein < 80 kDa (monomeric) [3] was 80%.

In the case of “^HAShh^HA, Shh with HA tags in both terminal peptides (ligand)”, the percent of eluted protein < 80 kDa (monomeric) [4] is reported as 56%.
